Test [1] deals with recombinant E. coli-expressed human IL-18 (human, UniProt Q14116 37-193). Kind of test: SPR.
Test [2] addresses T1, recombinant Sf21-expressed human IL-5 (human, UniProt P05113 20-134). Kind of test: ELISA.
Test [3] has as its target T2, recombinant E. coli-expressed human IL-13 (human, UniProt P35225 35-146).
T2 construct: made and purified at GSK; also called Interleukin-13; rhIL-13
Kind of test: SPR. (In general: SPR reads the build-up and loss of mass on a sensor chip optically.)

Test [4] has as its target T2, recombinant E. coli-expressed human …. Kind of test: SPR. This is another data set of the same source.
For test [5] the target is unchanged. Kind of test: SPR. This is another data set of the same source.
The target in test [6] is T3, recombinant E. coli-expressed cynomolgus IL-13 (cynomolgus, UniProt Q0PW92 21-132).
T3 construct: also called cyno IL-13
As to the kind of experiment: SPR.

Test [7] deals with T4, recombinant E. coli-expressed cynomolgus IL-4 (cynomolgus, UniProt P79339 25-153).
T4 construct: also called cyno IL-4
T4 sequence (looked up): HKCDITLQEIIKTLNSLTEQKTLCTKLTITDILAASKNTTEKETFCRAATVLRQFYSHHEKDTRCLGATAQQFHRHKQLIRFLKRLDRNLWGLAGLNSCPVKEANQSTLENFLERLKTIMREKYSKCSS
Kind of test: SPR.

The target in test [8] is T3, recombinant E. coli-expressed …. As to the kind of experiment: SPR. The source holds these as a separate data set.
For test [9], the target named is T2, recombinant E. coli-expressed human …. Kind of test: SPR. This is another data set of the same source.
Test [10] concerns the target T3, recombinant E. coli-expressed …. As to the kind of experiment: SPR. This is another data set of the same source.
The target in test [11] is T2, recombinant E. coli-expressed human …. Kind of test: SPR exp 1.
Test [12] shares this target. Kind of test: SPR exp 2.
The target is the same in test [13]. As to the kind of experiment: SPR exp 1. The source holds these as a separate data set.
Test [14] concerns the target T5, recombinant E. coli-expressed human IL-4 (human, UniProt P05112 25-153).
T5 construct: made and purified at GSK; also called Interleukin-4; rhIL-4
T5 sequence: T4 sequence (looked up) with K26E, I29V, L33F
Kind of test: SPR exp 1.

For test [15], the target named is T2, recombinant E. coli-expressed human …. As to the kind of experiment: SPR exp 3.
The target is the same in test [16]. Kind of test: SPR exp 1. This is another data set of the same source.
Test [17] shares this target. Kind of test: SPR, purified.
For test [18] the target is unchanged. As to the kind of experiment: SPR, purified. This is another data set of the same source.
The target is the same in test [19]. As to the kind of experiment: SPR stoichiometry.
The target is the same in test [20]. As to the kind of experiment: SPR, no IL-4 bound.
The target is the same in test [21]. Kind of test: cell-based or functional assay.
Test [22] has the same target. As to the kind of experiment: ELISA, IL-13 binding to IL13Ralpha2/Fc. (In general: ELISA stands for enzyme-linked immunosorbent assay.)
Test [23] has as its target T6, recombinant human IGF-1R-his tag (human, UniProt P08069 31-932).
T6 construct: bought; also called rhIGF-1R
As to the kind of experiment: ELISA.

A further test addresses T7, recombinant human VEGF (human, UniProt P15692-4 27-191).
T7 construct: also called VEGF165; hVEGF165
Kind of test: ELISA.

Test [24] has as its target T2, recombinant E. coli-expressed human …. As to the kind of experiment: SPR. The source holds these as a separate data set.
Test [25] addresses T5, recombinant E. coli-expressed human IL-4. As to the kind of experiment: ELISA, IL-4 binding to IL4Ralpha-Fc.
For a further test, the target named is T8, HEL (Hen Egg Lysozyme) (hen, UniProt P00698 19-147).
T8 construct: also called hen egg white lysozyme
T8 sequence (P00698 19-147): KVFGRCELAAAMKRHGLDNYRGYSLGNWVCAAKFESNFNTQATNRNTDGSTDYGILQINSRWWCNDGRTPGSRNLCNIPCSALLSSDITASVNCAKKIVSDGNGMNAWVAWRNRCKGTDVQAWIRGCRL
Kind of test: ELISA.

Test [26] addresses T5, recombinant E. coli-expressed human IL-4. Kind of test: ELISA.
Test [27] addresses recombinant human TNF-alpha (human, UniProt P01375 77-233). Kind of test: ELISA, supernatant.
Test [28] concerns the target T5, recombinant E. coli-expressed human IL-4. As to the kind of experiment: ELISA, supernatant.
Test [29] has as its target T2, recombinant E. coli-expressed human …. As to the kind of experiment: ELISA.
The target in test [30] is T1, recombinant Sf21-expressed human IL-5. Kind of test: SPR.

Where a chain is given by its changes, count along the chain named. Read-outs that look alike come from different tables or passages of the source.

By Kd is commonly meant the equilibrium constant for the complex coming apart. For orientation: koff means a measure of how fast the partners let go of each other. One may read the kon as the second-order rate constant of association. For orientation: IC50 means the concentration needed to halve the response being measured.

B1: Anti-human IL-18 (humanised) monoclonal antibody (antibody, human IgG1, kappa, V domains shown)
VH: QVQLVQSGAEVKKPGASVKVSCKVSGEISTGYYFHWVRQAPGKGLEWMGRIDPEDDSTKYAERFKDRVTMTEDTSTDTAYMELSSLRSEDTAVYYCTTWRIYRDSSGRPFYVMDAWGQGTLVTVSS
VL: DIQMTQSPSSVSASVGDRVTITCLASEDIYTYLTWYQQKPGKAPKLLIYGANKLQDGVPSRFSGSGSGTDYTLTISSLQPEDFATYYCLQGSKFPLTFGQGTKLEIKR
notes: also called Anti-human IL-18 mAb
As for B1, the Kd in test [1] was found to be 0.035 nM.

B2: Anti-human IL-13 monoclonal antibody (also known as 586) (antibody, human IgG1, kappa)
heavy: not shown
light: DIVMTQSPLSLPVTPGEPASISCRSSQNIVHINGNTYLEWYLQKPGQSPRLLIYKISDRFSGVPDRFSGSGSGTDFTLKISRVEADDVGIYYCFQGSHVPWTFGQGTKLEIKRTVAAPSVFIFPPSDEQLKSGTASVVCLLNNFYPREAKVQWKVDNALQSGNSQESVTEQDSKDSTYSLSSTLTLSKADYEKHKVYACEVTHQGLSSPVTKSFNRGEC
notes: also called Anti-human IL-13 mAb; anti-IL13 mAb
As to B2, the binding result is recorded as “no binding” in test [2], “no binding” in test [7] and “no binding (tested: 256 nM)” in test [14]. Further, the dissociation constant Kd amounted to 0.38 nM in [3]; 0.41 nM in test [4]; 0.38 nM in test [5]; 0.222 nM in test [6]; 0.119 nM in test [8]; 0.377 nM in test [9]. In addition, the Kd in test [10] turned out to be 0.171 nM; in test [11], 0.57 nM; in test [12] it was 0.67 nM; in test [13] it was 0.28 nM; in [15] it was 0.547 nM; in test [16], 0.28 nM. Moreover, the Kd in test [17] stood at 0.43 nM; in test [18], 0.41 nM; in test [20], 0.366 nM. The koff came out at 0.000105 s⁻¹ in test [6]; 6.55e-05 s⁻¹ in [8]; 0.000378 s⁻¹ in test [9]; 8.22e-05 s⁻¹ in [10]; 0.00049 s⁻¹ in test [11]; 0.000611 s⁻¹ in [12]. Further, the koff in test [20] is 0.000368 s⁻¹. Further, the kon in test [6] was 474000 M⁻¹ s⁻¹; in test [8] it was 550000 M⁻¹ s⁻¹; in test [9], 1e+06 M⁻¹ s⁻¹; in test [10], 479000 M⁻¹ s⁻¹; in test [11], 860000 M⁻¹ s⁻¹; in test [20] it was 1.01e+06 M⁻¹ s⁻¹. Further, in [19], the Stoichiometry was 1.8. Moreover, the “Mean IC50 (whole blood phospho-STAT6)” value in [21] was 1.47 nM. For the same molecule, the 50% inhibitory concentration (IC50) in [22] is 6.43 nM.

B3: 586H-210 GS removed (bispecific antibody, human IgG1, kappa)
heavy: not shown
light: B2 light
notes: also called BPC1601
With B3, the binding result in test [23] is listed as “no binding”; with recombinant human VEGF, “no binding”; in test [7], “binds”. Also, the Kd turned out to be 0.044 nM in test [6], 0.44 nM in test [24] and 0.438 nM in test [15]. The koff in [6] was 2.24e-05 s⁻¹. For the same molecule, the kon in [6] was 507000 M⁻¹ s⁻¹. Besides, the IC50 in test [25] worked out at 36.2 nM.

B4: BPC1816 (bispecific antibody, human IgG1, kappa)
heavy: not shown
light: DIVLTQSPSSLSASVGDRVTITCKASQSVDYDGDSYMNWYQQKPGKAPKLLIYAASNLESGIPSRFSGSGSGTDFTFTISSLQPEDIATYYCQQSNEDPPTFGQGTKVEIKRTVAAPSVFIFPPSDEQLKSGTASVVCLLNNFYPREAKVQWKVDNALQSGNSQESVTEQDSKDSTYSLSSTLTLSKADYEKHKVYACEVTHQGLSSPVTKSFNRGEC
notes: also called Anti IL-4 heavy Chain-GS-NARV
Regarding B4, the binding result (with HEL (Hen Egg Lysozyme); in [26]) was “binds” in each case.

B5: BPC1823 (bispecific antibody, human IgG1, kappa)
heavy: not shown
light: B4 light
notes: also called Anti IL-4 Heavy Chain-GS-anti TNF-a adnectin
Consider B5, for which the binding result in test [27] and in [28] was “binds” in each case.

B6: BPC1822 (bispecific antibody, human IgG1, kappa)
heavy: not shown
light: B4 light
With B6, the binding result in test [27] and in test [28] was “binds” throughout.

B7: Mepolizumab (Anti-human IL-5 monoclonal antibody) (antibody, human IgG1, kappa, V domains shown)
VH: QVTLRESGPALVKPTQTLTLTCTVSGFSLTSYSVHWVRQPPGKGLEWLGVIWASGGTDYNSALMSRLSISKDTSRNQVVLTMTNMDPVDTATYYCARDPPSSLLRLDYWGRGTLVTVSS
VL: DIVMTQSPDSLAVSLGERATINCKSSQSLLNSGNQKNYLAWYQQKPGQPPKLLIYGASTRESGVPDRFSGSGSGTDFTLTISSLQAEDVAVYYCQNVHSFPFTFGGGTKLEIKR
notes: also called IL-5 mAb; anti-human IL5 mAb
In the case of B7, the binding result in [29] and in test [26] was “no binding” throughout. For the same molecule, the Kd in [30] worked out at 0.34 nM.

The values above are taken from US20110008345A1 (GlaxoSmithKline, published 2011).
